Experimental data as given in the supplement of paper PMC11136658.

Test system: peptide library, one residue held at a place counted from the Y acceptor
Assay: relative phosphorylation of the sub-library (ratio to the mean residue at this position); higher = residue favoured
Procedure, shortened: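 Peptide library mixtures, biotinylated and centred on Tyr, each fixed one residue at one position from −5 to +5. Purified recombinant kinases were incubated with them for 90 min in 384-well plates alongside 50 μM ATP and γ-32P-ATP, and the captured, rinsed peptides on streptavidin membranes were measured by phosphorimaging and ImageQuant. Normalization divided each position's intensities by the sum of its 18 randomized residues (16 for the Ser/Thr-free library) and multiplied by that number, so that values give phosphorylation relative to the mean randomized residue.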

RET, construct: aa658-end, human, sequence (P07949 658-1114, looked up): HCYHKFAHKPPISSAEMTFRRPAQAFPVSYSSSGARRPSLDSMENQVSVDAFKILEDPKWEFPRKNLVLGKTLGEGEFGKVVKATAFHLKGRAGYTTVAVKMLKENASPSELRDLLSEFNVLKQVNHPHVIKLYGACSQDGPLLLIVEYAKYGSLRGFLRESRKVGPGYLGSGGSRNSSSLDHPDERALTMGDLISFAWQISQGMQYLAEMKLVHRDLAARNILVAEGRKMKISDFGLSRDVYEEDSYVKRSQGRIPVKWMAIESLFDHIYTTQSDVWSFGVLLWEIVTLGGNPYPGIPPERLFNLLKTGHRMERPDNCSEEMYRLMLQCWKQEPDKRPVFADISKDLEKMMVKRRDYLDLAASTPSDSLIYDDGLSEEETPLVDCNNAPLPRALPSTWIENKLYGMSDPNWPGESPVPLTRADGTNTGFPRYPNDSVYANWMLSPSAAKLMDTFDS
PTK2B, construct: aa360-690, human, sequence (Q14289 360-690, looked up): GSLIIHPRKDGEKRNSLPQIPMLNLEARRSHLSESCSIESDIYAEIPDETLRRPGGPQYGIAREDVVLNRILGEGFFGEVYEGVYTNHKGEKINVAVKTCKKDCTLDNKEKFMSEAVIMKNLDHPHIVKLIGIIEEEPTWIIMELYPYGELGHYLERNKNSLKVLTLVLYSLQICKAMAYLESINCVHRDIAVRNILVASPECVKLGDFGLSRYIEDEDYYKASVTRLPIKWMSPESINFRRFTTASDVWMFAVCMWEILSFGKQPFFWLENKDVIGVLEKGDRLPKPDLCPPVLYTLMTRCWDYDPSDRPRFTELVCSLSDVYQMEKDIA

PTK2B, construct: aa360-690, human (from UniProt Q14289)
relative phosphorylation
Conditions | at +1 | at +2 | at +3 | at +4 | at +5 | at -1 | at -2 | at -3 | at -4 | at -5
A fixed | 2.28 | 0.739 | 0.756 | 0.904 | 1.08 | 0.722 | 1.03 | 1.03 | 1.15 | 1.03
D fixed | 1.55 | 0.792 | 0.312 | 0.86 | 0.799 | 0.478 | 1.34 | 1.28 | 0.976 | 0.952
E fixed | 2.04 | 1.29 | 0.341 | 0.961 | 0.887 | 0.489 | 1.54 | 1.52 | 0.85 | 0.801
F fixed | 0.834 | 1.85 | 1.42 | 1.04 | 0.992 | 1.06 | 0.634 | 0.986 | 1.29 | 1.07
G fixed | 1.1 | 0.402 | 0.58 | 1.02 | 1.31 | 0.297 | 1.06 | 1.07 | 1.23 | 1.14
H fixed | 0.593 | 0.657 | 0.685 | 1.05 | 0.966 | 0.719 | 0.953 | 0.965 | 1.01 | 1.05
I fixed | 1.12 | 1.56 | 2.46 | 0.896 | 0.903 | 4.36 | 1.02 | 0.657 | 0.851 | 0.978
K fixed | 0.171 | 0.444 | 0.228 | 0.762 | 0.731 | 0.29 | 0.703 | 0.866 | 0.915 | 1.13
L fixed | 0.499 | 1.68 | 1.61 | 0.925 | 0.92 | 1.99 | 1.02 | 0.816 | 1.07 | 1.04
M fixed | 0.908 | 1.13 | 1.11 | 1.15 | 1 | 0.811 | 0.729 | 0.903 | 0.939 | 1.08
N fixed | 0.297 | 0.815 | 0.397 | 0.711 | 0.838 | 0.63 | 1.13 | 1.18 | 0.937 | 1.02
P fixed | 0.374 | 0.702 | 2.31 | 1.08 | 1.72 | 0.488 | 1.15 | 0.97 | 1.14 | 1.01
Q fixed | 0.788 | 0.679 | 0.365 | 0.992 | 0.758 | 0.443 | 1.09 | 0.895 | 0.918 | 0.896
R fixed | 0.215 | 0.603 | 0.298 | 0.938 | 0.912 | 0.374 | 0.748 | 0.923 | 0.969 | 1.16
S fixed | 1.15 | 0.82 | 0.669 | 0.981 | 1.1 | 0.534 | 1.08 | 1.27 | 0.927 | 0.98
T fixed | 1.02 | 0.823 | 0.794 | 0.875 | 1.09 | 0.935 | 0.962 | 1.02 | 0.679 | 0.825
V fixed | 2.02 | 1.27 | 2.28 | 1.09 | 0.926 | 2.67 | 1.2 | 0.704 | 0.86 | 0.926
W fixed | 1.04 | 1.75 | 1.4 | 1.77 | 1.07 | 0.714 | 0.613 | 0.95 | 1.3 | 0.917
pThr fixed | 3.7 | 2.29 | 0.44 | 0.84 | 0.752 | 0.624 | 1.09 | 0.878 | 0.728 | 0.817
pTyr fixed | 2.13 | 6.16 | 0.885 | 1.48 | 0.901 | 1.53 | 1.17 | 1.32 | 0.964 | 0.94

PTK6, construct: Full length, human (from UniProt Q13882)
relative phosphorylation
Conditions | at +1 | at +2 | at +3 | at +4 | at +5 | at -1 | at -2 | at -3 | at -4 | at -5
A fixed | 0.945 | 0.766 | 0.805 | 0.972 | 0.852 | 0.665 | 0.982 | 0.951 | 1.08 | 1.03
D fixed | 0.404 | 0.528 | 1.01 | 0.758 | 0.874 | 0.64 | 1.12 | 1.18 | 1.33 | 1.15
E fixed | 1.42 | 0.424 | 0.846 | 0.904 | 0.956 | 0.542 | 1.27 | 1.79 | 1.39 | 1.17
F fixed | 0.732 | 1.11 | 1.43 | 1.22 | 1.45 | 2.44 | 0.78 | 1.19 | 1.12 | 1.07
G fixed | 1.13 | 0.736 | 1.32 | 1.11 | 1.02 | 0.288 | 1.28 | 0.942 | 1.12 | 1.07
H fixed | 0.786 | 0.574 | 1.3 | 1.05 | 0.954 | 1.52 | 1.18 | 1.04 | 1.04 | 0.925
I fixed | 1.23 | 1.12 | 0.957 | 0.798 | 1.12 | 3.11 | 0.824 | 0.81 | 0.822 | 0.888
K fixed | 0.652 | 0.804 | 0.718 | 0.949 | 0.775 | 0.283 | 0.529 | 0.728 | 0.697 | 0.917
L fixed | 0.869 | 1.47 | 0.689 | 0.813 | 1.06 | 1.62 | 0.881 | 0.879 | 0.919 | 0.99
M fixed | 1.02 | 1.51 | 0.755 | 1.09 | 1.08 | 0.805 | 0.702 | 0.867 | 0.843 | 0.948
N fixed | 0.91 | 1.04 | 0.812 | 0.784 | 0.878 | 0.587 | 1.17 | 1.25 | 1.22 | 1.11
P fixed | 0.223 | 1.1 | 0.995 | 1.35 | 1.36 | 0.774 | 0.976 | 0.869 | 1.11 | 1.1
Q fixed | 1.32 | 0.607 | 0.763 | 1.01 | 0.75 | 0.43 | 0.998 | 0.811 | 0.977 | 0.995
R fixed | 1.07 | 1.12 | 0.985 | 1.17 | 0.853 | 0.261 | 0.631 | 0.86 | 0.821 | 0.997
S fixed | 1.24 | 0.902 | 0.97 | 0.871 | 0.837 | 0.418 | 1.2 | 0.962 | 0.833 | 0.863
T fixed | 1.64 | 0.587 | 0.732 | 0.72 | 0.818 | 0.83 | 0.814 | 0.84 | 0.637 | 0.778
V fixed | 1.48 | 0.616 | 0.863 | 0.884 | 0.898 | 1.43 | 0.855 | 0.705 | 0.742 | 0.632
W fixed | 0.938 | 2.98 | 2.04 | 1.55 | 1.46 | 1.35 | 1.81 | 1.33 | 1.3 | 1.38
pThr fixed | 0.711 | 0.441 | 0.759 | 0.797 | 0.891 | 0.57 | 0.79 | 0.848 | 0.878 | 1.08
pTyr fixed | 1.06 | 0.75 | 1.06 | 1.28 | 1.08 | 3.6 | 1.01 | 1.21 | 1.15 | 1.14

RET, construct: aa658-end, human (from UniProt P07949)
relative phosphorylation
Conditions | at +1 | at +2 | at +3 | at +4 | at +5 | at -1 | at -2 | at -3 | at -4 | at -5
A fixed | 0.957 | 0.877 | 0.845 | 0.859 | 0.923 | 0.865 | 0.967 | 0.857 | 1.08 | 1.05
D fixed | 0.306 | 0.726 | 0.705 | 0.87 | 0.823 | 1.29 | 0.865 | 1.04 | 1.02 | 0.925
E fixed | 0.415 | 0.976 | 0.636 | 0.831 | 0.783 | 1.2 | 0.885 | 1.43 | 1.1 | 0.86
F fixed | 1.49 | 1.1 | 1.12 | 1.14 | 0.844 | 1.02 | 0.624 | 0.934 | 0.881 | 0.91
G fixed | 0.541 | 0.643 | 0.88 | 1.05 | 1.44 | 0.5 | 1.34 | 1.18 | 1.27 | 1.23
H fixed | 1.37 | 0.942 | 1.17 | 1.1 | 1.14 | 1.4 | 1.04 | 1.11 | 1 | 1.04
I fixed | 1.59 | 0.802 | 1.28 | 0.73 | 0.765 | 1.46 | 0.674 | 0.606 | 0.749 | 0.786
K fixed | 0.629 | 0.939 | 0.582 | 1.12 | 1.17 | 0.656 | 1.3 | 1.11 | 1.26 | 1.33
L fixed | 1.41 | 1.07 | 1.09 | 0.83 | 0.76 | 1.12 | 0.768 | 0.748 | 0.888 | 0.872
M fixed | 1.29 | 0.996 | 1.2 | 1.01 | 0.972 | 0.76 | 0.712 | 0.769 | 0.931 | 0.875
N fixed | 0.513 | 1.21 | 0.865 | 1.08 | 1.09 | 1.29 | 1.2 | 1.14 | 0.859 | 1.05
P fixed | 0.494 | 0.965 | 1.24 | 1.17 | 1.54 | 0.896 | 1.19 | 1.15 | 1.23 | 1.1
Q fixed | 1.06 | 1.11 | 1.01 | 1.22 | 1.05 | 1 | 1.26 | 0.964 | 1.16 | 1.05
R fixed | 1.02 | 1.37 | 0.818 | 1.34 | 1.29 | 0.672 | 1.52 | 1.3 | 1.31 | 1.42
S fixed | 0.889 | 0.97 | 0.884 | 0.888 | 1 | 0.695 | 1.24 | 1.09 | 0.89 | 0.95
T fixed | 0.943 | 1.01 | 0.962 | 0.874 | 0.952 | 0.984 | 1.04 | 1.04 | 0.757 | 0.892
V fixed | 1.42 | 0.924 | 1.15 | 0.775 | 0.635 | 1.12 | 0.708 | 0.646 | 0.735 | 0.773
W fixed | 1.66 | 1.37 | 1.56 | 1.11 | 0.819 | 1.07 | 0.668 | 0.879 | 0.883 | 0.882
pThr fixed | 0.469 | 1.04 | 0.392 | 0.595 | 0.607 | 0.878 | 0.723 | 1.02 | 0.966 | 0.876
pTyr fixed | 1.17 | 1.45 | 0.459 | 0.586 | 0.622 | 1.46 | 0.933 | 1.85 | 1.23 | 1.15
